Laboratory results as given in the DeepSol protein solubility set.

Experiment: soluble on expression in E. coli; label from the status in PepcDB or PDB records

| Sequence | soluble on expression in E. coli |
| --- | --- |
| MHYSDHFHKVCIASELNEFTDAFRIIYSWLFSLKLLEPKFMDKDSIFCRLFTSIHFRLKYIAAPHYEERKRHLETLEKDGVPKAYIREYAEQQLNVIKQFKLEQKPIGHSFSTDEIIDAARCFGELSNGISVRSRYQRFRAVCMSWFSFMEVITGKDKSYPGSNYVDMFCEWHLTSKGSSVGATVHICQELDRFFAYINSKSVTINLLTAACIDGYIETYQSACFARKTVASKVSILRTFLRYLYNRSIIKTDMSSYLISPRIYTCEILSVSPNENDLNRISHFYDGNTPSAIRNKAILLLLIEYGMRSGGSYRFKT | not soluble |
| MKWNLDPSHTSIDFKVRHMGIASVRGSLKVLSGSVETDEAGRPIQVEAVIDAASIATGEPQRDGHLRSADFLHAEQYPEIRFVSTQIEPLGGNRYRIQGNLTIRDITKPVTLEAEVSAPIKDPWGMQRVAASASGQINRKDWNLTWNQVLELGALLVGEEVKFNLEVEAVAPAPVAAQ | soluble |
| MGRKNSPSANKELNELIAQYETARAENRQLYLDGDQLADIADQYAAERKFNEAQEVITYGLHLHPDSTDLLVEQAYLYLDTGKIPLAKKVVESITDEYDTDVKMLKAELMLNEGQLENARNVLDTIEDADELETIINIVYLYMDMGYPEAAKEWLDKGAPRHGKKEDFMAVMADYLTGTNQLEAASTFYNQLIDIDPYNASYWVGLAKCRFAAEDCEKAIEACDFALAADDKCGEAYAYRGHSYFYLNNSDAAIEDYKKAIKYKALPPEMGYMFLGLTYSNKEAWKEADDYYQRVIDRFIEEGLGNSPLLIDTYTNKAVAASRLGKYEEAHQLCKKAIAIQPDDPAIYLAEGKLYIQENQKKKAVKSFDKALTMEPSAEMWYMVASAYSDAEYLYQAKLCFQEAYRIDPNYADIAEKLSVLSLMHNEIDDFFKYNNESEHPISEDIILELLSRPNQTEEGEQMLREVWERMKKEKGNN | not soluble |
| TEAAAQPHALPADAPDIAPERDLLSKFDGLIAERQKLLDSGVTDPFAIVMEQVKSPTEAVIRGKDTILLGTYNYMGMTFDPDVIAAGKEALEKFGSGTCGSRMLNGTFHDHMEVEQALRDFYGTTGAIVFSTGYMANLGIISTLAGKGEYVILDADSHASIYDGCQQGNAEIVRFRHNSVEDLDKRLGRLPKEPAKLVVLEGVYSMLGDIAPLKEMVAVAKKHGAMVLVDEAHSMGFFGPNGRGVYEAQGLEGQIDFVVGTFSKSVGTVGGFVVSNHPKFEAVRLACRPYIFTASLPPSVVATATTSIRKLMTAHEKRERLWSNARALHGGLKAMGFRLGTETCDSAIVAVMLEDQEQAAMMWQALLDGGLYVNMARPPATPAGTFLLRCSICAEHTPAQIQTVLGMFQAAGRAVGVIGLEHHHHHH | soluble |
| MSEEAQPITLEAFAEAIRELPLSAVYAKVSEIRNSIAHLRRSNSELKAFIDETCESESDKRELEGYIAENEGVIATMNDRIGLLKTEIESRGERWIEEEIEANIKVDGDEVSTSQPIINGTAGDERPRAHEDATRRPEDRQTNEEEGVYL | not soluble |
| HRCVALCIETRPDYCGEKEINQMLKLGATRVELGVQTIYNEILEFCKRGHTVEDTIKATQLLKDSGLKVSYHLMPGMPGSDMEMDKKMFKEIFENPDFKPDMVKIYPCLVIEGTELYEMWKRGEYKPYREEEAIEIISYAKSIMPKWV | not soluble |
| MAHHHHHHMSWLTPSGSSYFLSKVVVNSAPCAPLHLLVMHRCRVAFPCVNYRPLLWRGMLQVPSRPTICDNSLKVQLRHSRISSFKQEGYYRFARAKDIHVDESCFTLLTARGGGPGGQGSNSSSNKVEMRVNMASLSEYFDEELIGNIKANECGKALTSDETQLIISSHEHRSMYQNKEECIRRLQQMIHVASWVPPVEANPIKKPSHIVSERKNERRKKSAVKKMRQTARKGLW | not soluble |
| GAMALVDGFLELERSSGKLEWSAILQKMASDLGFSKILFGLLPKDSQDYENAFIVGNYPAAWREHYDRAGYARVDPTVSHCTQSVLPIFWEPSIYQTRKQHEFFEEASAAGLVYGLTMPLHGARGELGALSLSVEAENRAEANRFMESVLPTLWMLKDYALQSGAGLAFEHPVSK | soluble |
| MTVASLRGRTGTPVPKREVELRATWSSECVTRPMTEEERIKYGVAIPPKITNADGVQERRPILLPKKSKYAHVTKELVLTEFAKGKTAVQIEREQGMKPNTLYARLRAWGIRSPHSPKLRNETAAPPPSSSDTHRTDNRIDDIFWDVQIELRRAMSRFPRFNSAHEGYAVVLEELDEAWQAIKANDLIHARLGNDAGGRDGDPFPARPSDRRKGGGTATMTKAERSKSKRTATERTKLAIAPNPNRCFVLFSSTYLTAGSAIVSLNSLVRQLEKHPADHPIEDIRLDREALLMEILFVPEGGDPHAKHRSGPDQGI | not soluble |
| MATNLIGLDTTQSQKLANALNNLLANYQVFYMNTRGYHWNIQGKEFFELHAKFEEIYTDLQLKIDELAERILTLSARPMHSFSGYLKAAQIKEHTDSIDGRSSMQGLVDGFSILLHQQRDILELAGETGDEGTSALMSDYIREQEKLVWMLNAWLK | not soluble |
| MEKMIITAAICGAEVLKEHNPAVPYTVEECVREAKSAYDAGASIIHLHVRYDDGTPTQDRNRFKEVMEAIKAVCPDVIIQPSTGGAVGMTNDERLQPTELFPEMATLDCGTLNFGGDEVFTNTENTIKYFGEKMIERGIKPELEVFDKSMIDMALRLHRKGYIQSPMHFDFVMGVNGGISGEMRDFVFLRESIPADATYTVAGVGRYEFPLAALAIIDGGHVRVGFEDNVYISKGVLARSNGELVEKVVRMAKEMGREIATPAEARRILGLSK | soluble |
| MKKSITTLDLNLLLCLQLLMQERSVTKAAKRINVTPSAVSKSLAKLRAWFDDPLFVNSPLGLSPTPLMVSMEQNLAEWMQMSNLLLDKPHHQTPRGLKFELAAESPLMMIMLNALSKQIYQRYPQATIKLRNWDYDSLDAITRGEVDIGFSGRESHPRSRELLSSLPLAIDYEVLFSDVPCVWLRKDHPALHQTWNLDTFLRYPHISICWEQSDTWALDNVLQELGRERTIAMSLPEFEQSLFMAAQPDNLLLATAPRYCQYYNQLHQLPLVALPLPFDESQQKKLEVPFTLLWHKRNSHNPKIVWLRETIKNLYASMA | soluble |
| MCDCLSIILLVKMKKIYLKFVDFWDGFDTISNFIVDALSIQYEVVLSNEPDYLFYSCFGTSHLEYDCIKIMFIGENIVPDFNVCDYAIGFNYIDFGDRYLRLPLYAIYDGFSNLQNKKIDVNKALDRKFCSIVVSNNKWADPIRETFFKLLSSYKKVDSGGRAWNNIGGPVDNKLDFISQYKFNIAFENSRVLGYTTEKIMEPMQVNSIPVYWGNPLVGKDFNVDSFVNAHDFDSLERLVEYIIELDSSKDKYLEMLEKPWLLDKTYLDWKQLLLNFINNIMMKSYKDAKYLVNYGHAGKYRNEQRFWGRCERKFKLQRIIEYYSQLFDRKLEHHHHHH | not soluble |
| MAHHHHHHMHLLSFLSFIIWFIHCTAKRHEYSIKKYFLNSHNFCKIKPDPFRKDTLKKRLYSSDGIKDEIIIGTRDSPLALKQSEKVRKKIMSYFKKMNKNINVTFKYIKTTGDNILDSKSVGLYGGKGIFTKELDEQLINGNVDLCVHSLKDVPILLPNNIELSCFLKRDTINDAFLSIKYKSINDMNTVKSVSKTEDIHHINKKDSDHNNDTLCTIGTSSLRRRSQIKNRYKNIYVNNIRGNINTRIEKLYNGEVDALIIAMCGIERLIKKANLKHLLKNKEQKNICQPFLLKCNNKKCIDLCHVNIQKLNKNLIYPALGQGIIAVTSHKKNYFISSLLKNINNKKSEMMAQIERSFLYHIDGNCMMPIGGYTNMRNEDIYLHVIINDIHGYNKYQVTQKDTLYNYKEIGPNAAIKMKEIIGTEQFNKIKAEAELHLLNNK | not soluble |
| GMSSKQHCVKLNDGHLIPALGFGTYKPKEVPKSKSLEAACLALDVGYRHVDTAYAYQVEEEIGQAIQSKIKAGVVKREDLFVTTKLWCTCFRPELVKPALEKSLKKLQLDYVDLYIMHYPVPMKSGDNDFPVNEQGKSLLDTVDFCDTWERLEECKDAGLVKSIGVSNFNHRQLERILNKPGLKYKPVCNQVECHLYLNQRKLLDYCESKDIVLVAYGALGTQRYKEWVDQNSPVLLNDPVLCDVAKKNKRSPALIALRYLIQRGIVPLAQSFKENEMRENLQVFGFQLSPEDMKTLDGLNKNFRYLPAEFLVDHPEYPFVEEY | soluble |
| MSLKEVRYAMIHDESRCNGCNICARACRKTNHVPAQGSRLSIAHIPVTDNDNETQYHFFRQSCQHCEDAPCIDVCPTGASWRDEQGIVRVEKSQCIGCSYCIGACPYLVRYLNPVTKVADKCDFCAESRLAKGFPPICVSACPEHALIFGREDSPEIQAWLQDNKYYQYQLPGTGKPHLYRRFGQHLIKKENEGHHHHHH | not soluble |
| AEQDMYLLRQSFGKHKTVSAGVPWFSTLFGRDSLITASQTLMLNSQIAKETLILLAKYQGKIDDEWREEEPGKILHELRLGEMARCQEIPHTPYYGTVDATPLWLMLYAEHYAWTHDQELLELLWPNALAAMDWIDRNTKQTSYLSYFRKSKRGLANQGWKDSGDCIVNHKGELANGPIALCEVQAYVYAAKTRLAEIARMKKRLDLADRWLEEARSLKVRFNRDFWVEDQDFCALALDGDGKPVDSITSNPGHCLHLGLFTHERAYSVAERLRAPDMFNGWGIRTLSSLSPAYNPMGYHIGSVWPHDNALIAMGLRSLGLIDQALELFQGLFDMTSQQPYERPPELFCGYERNGDNAPVQYPVACTPQAWATGSIFQ | not soluble |
| GPGSMMSLPVEAVKEFLLKLQDDICHAIEAEDEQATFMEDKWTREGGGGGRTRVIANGAVIEKGGVNFSHVYGKGLPGSSTERHPDMAGCNYQAMGVSLVIHPKNPHVPTSHANVRLFVAEKEGKEPVWWFGGGFDLTPYYAVEEDCYYFHHVAQELCRPFGADVYERFKAWCDEYFFIPHRNEARGIGGLFFDDLNEWPFEKCFAFMQAVGKGFIDAYIPIVNRRKNTPYTEQQVEFQEFRRGRYAEFNLVIDRGTKFGLQSGGRTESILMSLPPRARWGYNWHPEPGTPEARLTEYFLTKKQWV | soluble |
| MKQQDNPLIEQFLDALWLERNLAENTLASYRLDLHALVGWLTHHNSDLLRASPQDLQSFLAERIEGGYKATSSARLLSAMRRLFQYLYREKLREDDPTALLSSPKLPQRLPKDLSEAQVDALLNSPNVDIPLELRDKAMLEVLYATGLRVSELVGLTISDVSLRQGVVRVIGKGNKERLVPLGEEAVYWIENYMEHGRPWLVNGASLDVLFPSNRSQQMTRQTFWHRIKHYAILAGIDSERLSPHVLRHAFATHLLNHGADLRVVQMLLGHSDLSTTQIYTHVATERLRQLHQQHHPRA | not soluble |
| MANVQSGKMIVGLDIGTSKVVALVGEVAADGSLEIVGIGTHPSRGLKKGVVVNIESTVQSIQRAIEEAQLMAGCRIHSAFVGVAGSHIRSLNSHGIVAIRDREVSAADLERVLDAAQAVAIPADQ | not soluble |
| MGHHHHHHSHMEGSETGSREGSDVACTEGICNHDEHGDDSCVHHCEDKEDDGDSCVECWANSEENDTKGKNKKKKKKSKILKCDEHIQKLGSCITDPGNRETSGNTMHTVFHRDKTKDTHPESCCSSEKGGQPLPWFEHRKNVPQFAEPTETLFGPDSGKGAKSLVELLDESECTSDEEIFISQDEIQSFMANNQSFYSNREQYRQHLKEKFNKYCRLNDHKRPICSGWLTTAGAN | not soluble |
| PSSSQSEEKAPELPKPKKNRCFMCRKKVGLTGFDCRCGNLFCGLHRYSDKHNCPYDYKAEA | soluble |
